Results from the supplement of paper PMC10065799, “High-throughput profiling of sequence recognition by tyrosine kinases and SH2 domains using bacterial peptide display” (eLife, 2023).

Key:
SHP2-C SH2 = test: SH2 binding enrichment of the phosphorylated peptide, bacterial display (enrichment ratio); higher = better substrate or ligand; peptides without Tyr show the background
c-Src SH2 = test: as above
Grb2 SH2 = Grb2 SH2 (UniProt P62993); test: as above
Fes = Fes (UniProt P07332); test: phosphorylation enrichment, bacterial display (enrichment ratio); higher = better substrate or ligand; peptides without Tyr show the background
EPHB1 = EPHB1 (UniProt P54762); test: as above
EPHB2 = EPHB2 (UniProt P29323); test: as above
FGFR3 = FGFR3 (UniProt P22607); test: as above
Hck = Hck (UniProt P08631); test: as above
Fyn = Fyn (UniProt P06241); test: as above
AncSZ = test: as above
c-Src = test: as above
c-Abl (mouse) = test: as above
MERTK = MERTK (UniProt Q12866); test: as above
FGFR1 = FGFR1 (UniProt P11362); test: as above
Fer (mouse) = test: as above
Jak2 = Jak2 (UniProt O60674); test: as above
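Throughout, for SH2 binding enrichment of the phosphorylated peptide, bacterial display: peptide library displayed on the E. coli surface as eCPX fusions, selected cells deep-sequenced, score is each peptide's frequency after selection divided by its frequency in the input.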
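Throughout, for phosphorylation enrichment, bacterial display: 11-residue human phosphosite peptides and single-mutation variants displayed on the E. coli surface, counted by deep sequencing, each peptide's frequency after selection divided by its frequency in the unselected input library; frequency after pTyr selection over input frequency; kinase dosed for 20-30% of maximal phosphorylation in three min.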

Fyn, sequence (P06241 whole entry, looked up): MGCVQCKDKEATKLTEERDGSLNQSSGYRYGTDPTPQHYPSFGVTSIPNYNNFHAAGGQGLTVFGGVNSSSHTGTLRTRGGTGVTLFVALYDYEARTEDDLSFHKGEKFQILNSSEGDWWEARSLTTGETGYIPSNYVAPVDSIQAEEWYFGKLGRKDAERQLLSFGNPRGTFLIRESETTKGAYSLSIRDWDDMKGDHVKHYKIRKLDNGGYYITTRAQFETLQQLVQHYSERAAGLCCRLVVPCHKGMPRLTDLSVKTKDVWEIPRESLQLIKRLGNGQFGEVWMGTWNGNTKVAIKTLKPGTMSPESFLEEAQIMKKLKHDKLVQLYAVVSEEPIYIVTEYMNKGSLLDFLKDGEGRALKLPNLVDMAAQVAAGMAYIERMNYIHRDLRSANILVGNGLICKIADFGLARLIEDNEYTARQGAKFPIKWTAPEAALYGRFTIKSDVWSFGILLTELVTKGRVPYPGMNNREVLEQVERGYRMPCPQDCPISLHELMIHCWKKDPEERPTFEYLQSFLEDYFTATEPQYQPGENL
EPHB2, sequence (P29323 whole entry, looked up): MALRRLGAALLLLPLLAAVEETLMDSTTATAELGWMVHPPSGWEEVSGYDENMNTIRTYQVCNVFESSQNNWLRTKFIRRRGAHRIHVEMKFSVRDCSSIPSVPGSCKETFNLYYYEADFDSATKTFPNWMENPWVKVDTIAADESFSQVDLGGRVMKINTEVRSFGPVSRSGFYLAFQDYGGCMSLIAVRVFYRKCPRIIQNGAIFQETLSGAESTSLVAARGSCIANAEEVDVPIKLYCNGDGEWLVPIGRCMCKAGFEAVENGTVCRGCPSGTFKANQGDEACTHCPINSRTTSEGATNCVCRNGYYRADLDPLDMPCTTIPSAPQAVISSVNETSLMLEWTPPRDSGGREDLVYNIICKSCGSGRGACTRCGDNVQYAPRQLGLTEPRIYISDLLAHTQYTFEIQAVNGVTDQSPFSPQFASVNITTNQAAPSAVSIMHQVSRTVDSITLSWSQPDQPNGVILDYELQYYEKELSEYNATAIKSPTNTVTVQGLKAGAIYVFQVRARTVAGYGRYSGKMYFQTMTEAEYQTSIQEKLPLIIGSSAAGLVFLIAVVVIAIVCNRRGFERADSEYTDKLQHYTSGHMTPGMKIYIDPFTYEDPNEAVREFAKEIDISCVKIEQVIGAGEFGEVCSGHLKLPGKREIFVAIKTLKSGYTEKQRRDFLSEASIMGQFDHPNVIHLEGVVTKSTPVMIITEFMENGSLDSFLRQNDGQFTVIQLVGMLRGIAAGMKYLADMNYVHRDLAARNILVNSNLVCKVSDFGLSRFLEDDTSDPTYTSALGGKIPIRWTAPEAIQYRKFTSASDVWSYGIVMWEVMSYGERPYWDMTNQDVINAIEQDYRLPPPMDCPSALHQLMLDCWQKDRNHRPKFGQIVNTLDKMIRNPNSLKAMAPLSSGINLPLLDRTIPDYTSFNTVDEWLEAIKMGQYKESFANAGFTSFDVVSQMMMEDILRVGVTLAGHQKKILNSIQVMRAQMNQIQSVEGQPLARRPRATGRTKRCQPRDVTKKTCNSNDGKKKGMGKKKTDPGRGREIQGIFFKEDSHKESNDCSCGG
Jak2, sequence (O60674 whole entry, looked up, the tested form may be a part): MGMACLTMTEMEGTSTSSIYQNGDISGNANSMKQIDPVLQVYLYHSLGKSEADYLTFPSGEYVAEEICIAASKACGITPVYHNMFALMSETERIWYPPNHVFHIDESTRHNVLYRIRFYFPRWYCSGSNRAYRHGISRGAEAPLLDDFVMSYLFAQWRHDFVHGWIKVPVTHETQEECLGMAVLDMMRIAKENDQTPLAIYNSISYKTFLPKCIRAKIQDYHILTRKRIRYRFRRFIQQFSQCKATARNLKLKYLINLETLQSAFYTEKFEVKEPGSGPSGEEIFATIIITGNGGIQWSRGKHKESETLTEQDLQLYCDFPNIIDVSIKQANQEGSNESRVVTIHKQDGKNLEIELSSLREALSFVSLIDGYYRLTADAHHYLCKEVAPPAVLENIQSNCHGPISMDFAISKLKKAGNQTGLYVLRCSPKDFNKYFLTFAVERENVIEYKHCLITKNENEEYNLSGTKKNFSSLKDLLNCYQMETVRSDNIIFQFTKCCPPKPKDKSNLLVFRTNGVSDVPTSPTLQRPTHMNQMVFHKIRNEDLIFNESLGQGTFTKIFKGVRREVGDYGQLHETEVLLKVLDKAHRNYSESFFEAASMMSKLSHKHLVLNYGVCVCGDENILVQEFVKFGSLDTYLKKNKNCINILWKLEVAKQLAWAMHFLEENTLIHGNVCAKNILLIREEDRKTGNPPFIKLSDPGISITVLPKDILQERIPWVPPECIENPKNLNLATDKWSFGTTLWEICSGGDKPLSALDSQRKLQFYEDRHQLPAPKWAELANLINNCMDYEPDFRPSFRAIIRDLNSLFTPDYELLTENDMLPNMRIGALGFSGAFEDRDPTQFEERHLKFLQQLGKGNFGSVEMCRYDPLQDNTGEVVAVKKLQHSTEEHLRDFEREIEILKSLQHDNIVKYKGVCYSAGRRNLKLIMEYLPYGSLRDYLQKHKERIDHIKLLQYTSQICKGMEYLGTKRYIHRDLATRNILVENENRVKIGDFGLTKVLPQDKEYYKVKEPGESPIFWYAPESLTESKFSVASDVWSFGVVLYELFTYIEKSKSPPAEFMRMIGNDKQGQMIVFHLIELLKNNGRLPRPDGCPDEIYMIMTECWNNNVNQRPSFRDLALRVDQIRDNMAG
MERTK, sequence (Q12866 whole entry, looked up): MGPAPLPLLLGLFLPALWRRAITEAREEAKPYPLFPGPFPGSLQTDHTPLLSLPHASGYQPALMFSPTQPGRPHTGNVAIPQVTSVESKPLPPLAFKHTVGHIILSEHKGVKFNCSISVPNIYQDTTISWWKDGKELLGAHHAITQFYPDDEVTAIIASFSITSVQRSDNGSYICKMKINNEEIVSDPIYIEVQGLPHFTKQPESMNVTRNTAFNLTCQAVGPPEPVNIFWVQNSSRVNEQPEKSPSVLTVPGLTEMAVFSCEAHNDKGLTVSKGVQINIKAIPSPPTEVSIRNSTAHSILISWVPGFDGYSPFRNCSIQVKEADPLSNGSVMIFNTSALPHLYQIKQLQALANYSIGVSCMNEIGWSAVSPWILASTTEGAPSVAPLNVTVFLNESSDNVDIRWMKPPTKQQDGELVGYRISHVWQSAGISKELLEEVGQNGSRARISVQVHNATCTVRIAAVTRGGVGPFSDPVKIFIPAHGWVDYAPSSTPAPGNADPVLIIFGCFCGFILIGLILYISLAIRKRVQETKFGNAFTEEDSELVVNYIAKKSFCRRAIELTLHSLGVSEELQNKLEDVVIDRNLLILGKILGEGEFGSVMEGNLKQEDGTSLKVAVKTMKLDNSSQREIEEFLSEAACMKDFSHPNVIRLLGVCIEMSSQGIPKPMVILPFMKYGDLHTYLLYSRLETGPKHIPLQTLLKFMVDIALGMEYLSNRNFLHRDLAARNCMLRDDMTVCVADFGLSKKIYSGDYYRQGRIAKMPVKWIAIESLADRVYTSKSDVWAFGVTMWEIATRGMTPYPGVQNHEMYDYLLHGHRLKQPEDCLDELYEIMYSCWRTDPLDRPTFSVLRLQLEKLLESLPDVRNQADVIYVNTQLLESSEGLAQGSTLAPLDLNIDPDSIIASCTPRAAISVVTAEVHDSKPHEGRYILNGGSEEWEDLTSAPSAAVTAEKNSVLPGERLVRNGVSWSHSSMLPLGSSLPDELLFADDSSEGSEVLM
EPHB1, sequence (P54762 whole entry, looked up): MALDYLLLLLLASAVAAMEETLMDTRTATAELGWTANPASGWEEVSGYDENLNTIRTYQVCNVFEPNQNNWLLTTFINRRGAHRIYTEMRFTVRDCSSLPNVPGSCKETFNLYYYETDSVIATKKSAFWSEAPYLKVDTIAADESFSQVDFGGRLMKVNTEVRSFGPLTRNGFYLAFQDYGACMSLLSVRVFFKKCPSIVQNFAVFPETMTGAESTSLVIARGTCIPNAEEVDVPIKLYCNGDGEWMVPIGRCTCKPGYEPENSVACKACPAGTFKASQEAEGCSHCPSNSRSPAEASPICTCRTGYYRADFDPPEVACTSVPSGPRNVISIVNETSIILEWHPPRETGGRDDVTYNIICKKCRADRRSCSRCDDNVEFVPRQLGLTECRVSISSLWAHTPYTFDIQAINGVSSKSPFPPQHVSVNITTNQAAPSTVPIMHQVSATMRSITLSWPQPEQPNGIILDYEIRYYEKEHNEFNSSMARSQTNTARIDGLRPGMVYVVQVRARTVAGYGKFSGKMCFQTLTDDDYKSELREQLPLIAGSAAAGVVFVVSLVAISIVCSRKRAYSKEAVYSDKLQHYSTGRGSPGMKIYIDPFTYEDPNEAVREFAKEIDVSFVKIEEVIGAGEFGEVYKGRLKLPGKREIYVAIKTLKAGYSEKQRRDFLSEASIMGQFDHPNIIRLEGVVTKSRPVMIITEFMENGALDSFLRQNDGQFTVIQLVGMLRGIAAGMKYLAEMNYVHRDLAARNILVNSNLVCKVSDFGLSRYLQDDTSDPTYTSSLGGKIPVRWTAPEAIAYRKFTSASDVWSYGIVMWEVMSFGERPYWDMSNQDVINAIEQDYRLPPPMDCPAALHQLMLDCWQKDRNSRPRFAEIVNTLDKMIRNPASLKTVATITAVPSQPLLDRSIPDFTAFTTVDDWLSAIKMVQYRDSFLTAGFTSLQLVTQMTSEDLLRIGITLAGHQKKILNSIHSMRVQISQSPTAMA

SH2 binding enrichment (SHP2-C SH2)	SH2 binding enrichment (c-Src SH2)	SH2 binding enrichment (Grb2 SH2)	Sequence	phosphorylation enrichment (Fes)	phosphorylation enrichment (EPHB1)	phosphorylation enrichment (EPHB2)	phosphorylation enrichment (FGFR3)	phosphorylation enrichment (Hck)	phosphorylation enrichment (Fyn)	phosphorylation enrichment (AncSZ)	phosphorylation enrichment (c-Src)	phosphorylation enrichment (c-Abl (mouse))	phosphorylation enrichment (MERTK)	phosphorylation enrichment (FGFR1)	phosphorylation enrichment (Fer (mouse))	phosphorylation enrichment (Jak2)
0.711	0.714	0.973	PFRKLYESVKK [MKI67_Y241_W238R]	0.695	0.516	0.368	0.685	0.563	0.454	0.931	0.491	1	0.612	2.28	0.458	1.16
0.716	0.874	1.01	PHMQTYEVDLN [SDHB_Y61]	1.29	0.978	0.797	0.755	0.804	0.906	1.17	1.04	0.649	0.51	0.61	1.02	1.12
0.769	4.62	0.877	PIFEGYALPHA [ACTA1_Y171_YF]	0.778	0.546	0.574	0.665	0.541	0.536	0.82	0.562	2.44	0.807	0.536	0.49	0.717
1.31	0.747	0.998	PKSLFYLLLKL [TRPC6_Y775]	2.82	1.04	1.89	1.48	0.716	0.31	2.5	1.74	2.62	1.54	1.12	1.51	4.8
0.598	0.483	0.688	PLDGEYFTLQV [TP53_Y327_I332V]	1.94	2.21	1.44	10.6	2.74	5.07	3.87	2.09	1.02	0.494	12.8	0.842	2.16
1.08	0.906	1.29	PLQKIYNFNVL [SLC4A1_Y553_T552I_YF]	1.44	0.743	0.84	0.684	1.12	1.43	0.985	2.63	1.06	0.811	0.793	0.795	1.19
0.607	0.659	0.908	PLQKTYNHNVL [SLC4A1_Y553_Y555H]	0.946	0.576	0.591	0.524	0.291	0.531	0.657	0.686	0.833	0.744	0.479	0.659	0.892
0.684	0.272	0.768	PNATLYKMTSI [SERPINA7_Y40_S43T]	1.5	0.642	1.02	0.668	0.636	0.604	0.883	1.04	1.3	0.918	0.86	0.477	1.16

More lines, now with the values behind:

Sequence	SH2 binding enrichment (SHP2-C SH2)	SH2 binding enrichment (c-Src SH2)	SH2 binding enrichment (Grb2 SH2)	phosphorylation enrichment (Fes)	phosphorylation enrichment (EPHB1)	phosphorylation enrichment (EPHB2)	phosphorylation enrichment (FGFR3)	phosphorylation enrichment (Hck)	phosphorylation enrichment (Fyn)	phosphorylation enrichment (AncSZ)	phosphorylation enrichment (c-Src)	phosphorylation enrichment (c-Abl (mouse))	phosphorylation enrichment (MERTK)	phosphorylation enrichment (FGFR1)	phosphorylation enrichment (Fer (mouse))	phosphorylation enrichment (Jak2)
PFFASYPPSPD [GDAP2_Y491_T489A_YF]	0.847	0.658	1.01	1.23	0.99	0.865	0.839	1.11	0.784	1.03	0.488	0.859	0.769	0.747	0.435	1.02
PFTRNYFVRAV [CYBA_Y87_YF]	0.327	0.519	0.868	0.967	0.413	0.708	0.739	0.595	0.533	1.04	0.419	0.868	0.544	0.788	0.408	0.93
PGPQSYPTVTG [PAX5_Y299_I301T]	0.824	0.513	0.787	0.888	0.79	0.725	0.539	0.582	0.828	0.819	0.594	1.06	0.707	0.811	0.63	0.892
PINEPYGDDMD [JUP_Y693]	1.05	0.601	1.04	1.75	0.944	0.985	1.34	0.981	1.03	2.44	0.858	1.25	0.919	1.15	0.837	1.89
PLFRVYGLESL [INSR_Y94_L89P]	0.663	0.345	0.851	1.43	0.803	0.673	0.686	0.574	1.03	1.2	0.864	1.15	0.508	0.58	0.571	1.43
PLLEYYRDIFT [CDAN1_Y713]	0.777	1.04	1.16	1.81	1.38	1.25	5.58	0.846	0.704	1.7	0.789	1.45	0.782	6.73	1.02	4.74
PLQSEYSSIST [ITGB4_Y1760_T1764S]	0.826	1.17	0.844	1.28	1.81	2.28	0.925	1.93	1.27	2.59	1.3	1.49	0.582	0.944	1.08	0.822
PMFTKYGNSLL [RPGRIP1L_Y196]	0.679	0.749	0.952	1.73	1.07	0.643	0.912	0.636	0.558	1.45	0.951	1.49	0.708	0.645	1.44	1.44
